The record followed here is PMC9927289, “Control of Cell Size by c-di-GMP Requires a Two-Component Signaling System in the Cyanobacterium Anabaena sp. Strain PCC 7120” (Microbiology Spectrum, 2023).

Substrate in data set [1]: Nc1nc2c(ncn2[C@@H]2O[C@H](COP(=O)(O)OP(=O)(O)OP(=O)(O)O)[C@@H](O)[C@H]2O)c(=O)[nH]1
The data set is described as follows: diguanylate cyclase assay, Michaelis-Menten and Lineweaver-Burk. Format: biochemical, Nostoc sp. PCC 7120 = FACHB-418. The note with it: c-di-GMP synthesis; GTP varied. The text has this:
diguanylate cyclase assay, Michaelis-Menten and Lineweaver-Burk on CdgS (All2874) | kinetic curves for c-di-GMP synthesis of CdgS and CdgS^D60A followed Michaelis–Menten kinetics

Substrate in data set [2]: Nc1nc2c(ncn2[C@@H]2O[C@H](COP(=O)(O)OP(=O)(O)OP(=O)(O)O)[C@@H](O)[C@H]2O)c(=O)[nH]1
Described as above. Format: biochemical, Nostoc sp. PCC 7120 = FACHB-418. The conditions noted are these: c-di-GMP synthesis; GTP varied. The text has this:
diguanylate cyclase assay, Michaelis-Menten and Lineweaver-Burk on CdgS (All2874) | CdgS^D60A could still synthesize c-di-GMP using GTP as the substrate
This is another data set of the same source.

B1: CdgS (All2874) (Nostoc sp. PCC 7120 = FACHB-418) (protein)
chain: MKNTVPESQCLILIVDDEPFIRAQLRLSLQCEGYRTAEAEDGRQALAIFQELQPDIVLLDAIMPDLDGFECCTRLQLLEDGKYTPVLMITGLEDQESVDRAFEVGAIDYVTKPIHWPVLRQRVKRLIQQFHLQQKLEAANRELQRLVTIDELTQVANRRRFEEYCAQEWQRMARDQLPLSLILCDVDFFKAYNDTYGHRAGDRCLQLVAKAIESCVNRPADVVARYGGEEFAVILPRTYPDGAIHLANAICTAVRELQITHLTSQANTCVTISAGVATEIPVPNSDFQEIINAADRALYQAKMTGRDGCQQYIKQSSSPVYFLNAHHRLA
notes: REC-GGDEF response regulator; recombinant from E. coli BL21(DE3), pHTwinStrep vector (two tandem C-terminal Strep-tags)
As a reminder, the Km is the substrate concentration at which the rate is half of its maximum. For orientation: kcat means the number of substrate molecules converted per active site and unit of time at saturation. Take B1: in data set [1], the Michaelis-Menten constant (Km) was 5.84 µM and the kcat was determined as 73.68 s⁻¹.

B2: CdgS (All2874) (Nostoc sp. PCC 7120 = FACHB-418; D60A) (protein)
chain: MKNTVPESQCLILIVDDEPFIRAQLRLSLQCEGYRTAEAEDGRQALAIFQELQPDIVLLAAIMPDLDGFECCTRLQLLEDGKYTPVLMITGLEDQESVDRAFEVGAIDYVTKPIHWPVLRQRVKRLIQQFHLQQKLEAANRELQRLVTIDELTQVANRRRFEEYCAQEWQRMARDQLPLSLILCDVDFFKAYNDTYGHRAGDRCLQLVAKAIESCVNRPADVVARYGGEEFAVILPRTYPDGAIHLANAICTAVRELQITHLTSQANTCVTISAGVATEIPVPNSDFQEIINAADRALYQAKMTGRDGCQQYIKQSSSPVYFLNAHHRLA
notes: as for B1
B2: in data set [2], the Km amounted to 6.33 µM and the catalytic constant (kcat) is 60.53 s⁻¹.
